The values that follow come from IntAct's records for PubMed 22416126.

B1: Non-POU domain-containing octamer-binding protein (Homo sapiens), Q15233 (parent)
chain: MQSNKTFNLEKQNHTPRKHHQHHHQQQHHQQQQQQPPPPPIPANGQQASSQNEGLTIDLKNFRKPGEKTFTQRSRLFVGNLPPDITEEEMRKLFEKYGKAGEVFIHKDKGFGFIRLETRTLAEIAKVELDNMPLRGKQLRVRFACHSASLTVRNLPQYVSNELLEEAFSVFGQVERAVVIVDDRGRPSGKGIVEFSGKPAARKALDRCSEGSFLLTTFPRPVTVEPMDQLDDEEGLPEKLVIKNQQFHKEREQPPRFAQPGSFEYEYAMRWKALIEMEKQQQDQVDRNIKEAREKLEMEMEAARHEHQVMLMRQDLMRRQEELRRMEELHNQEVQKRKQLELRQEEERRRREEEMRRQQEEMMRRQQEGFKGTFPDAREQEIRMGQMAMGGAMGINNRGAMPPAPVPAGTPAPPGPATMMPDGTLGLTPPTTERFGQAATMEGIGAIGGTPPAFNRAAPGAEFAPNKRRRY
partner: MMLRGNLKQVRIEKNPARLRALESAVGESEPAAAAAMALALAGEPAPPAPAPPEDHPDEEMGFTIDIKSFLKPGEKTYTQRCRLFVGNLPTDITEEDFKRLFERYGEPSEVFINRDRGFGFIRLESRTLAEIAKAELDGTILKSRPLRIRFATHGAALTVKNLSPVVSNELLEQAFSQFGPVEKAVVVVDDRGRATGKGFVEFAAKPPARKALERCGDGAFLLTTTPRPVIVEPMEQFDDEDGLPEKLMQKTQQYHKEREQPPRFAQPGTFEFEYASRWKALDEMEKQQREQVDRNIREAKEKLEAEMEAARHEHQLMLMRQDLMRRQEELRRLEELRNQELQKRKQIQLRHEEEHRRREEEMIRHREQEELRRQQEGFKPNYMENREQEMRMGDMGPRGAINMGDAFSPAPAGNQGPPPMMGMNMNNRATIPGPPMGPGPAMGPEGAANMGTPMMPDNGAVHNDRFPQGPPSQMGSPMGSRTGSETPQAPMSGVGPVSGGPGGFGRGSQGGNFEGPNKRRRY
B2: Paraspeckle component 1 (Homo sapiens), Q8WXF1-1 (parent)
chain: B1 partner
partner: B1 chain

One assay covers variants of B1. The note with it: with PSPC1, Q8WXF1-1.
MQSNKTFNLEKQNHTPRKHHQHHHQQQHHQQQQQQPPPPPIPANGQQASSQNEGLTIDLKNFRKPGEKTFTQRSRLFVGNLPPDITEEEMRKLFEKYGKAGEVFIHKDKGFGFIRLETRTLAEIAKVELDNMPLRGKQLRVRFACHSASLTVRNLPQYVSNELLEEAFSVFGQVERAVVIVDDRGRPSGKGIVEFSGKPAARKALDRCSEGSFLLTTFPRPVTVEPMDQLDDEEGLPEKLVIKNQQFHKEREQPPRFAQPGSFEYEAAMRAKALIEMEKQQQDQVDRNIKEAREKLEMEMEAARHEHQVMLMRQDLMRRQEELRRMEELHNQEVQKRKQLELRQEEERRRREEEMRRQQEEMMRRQQEGFKGTFPDAREQEIRMGQMAMGGAMGINNRGAMPPAPVPAGTPAPPGPATMMPDGTLGLTPPTTERFGQAATMEGIGAIGGTPPAFNRAAPGAEFAPNKRRRY [Y267A;W271A]: the “effect of a mutation on the interaction” value was “decreasing interaction strength”.

In the next assay the parent is B2. As to conditions: with nono_human NONO.
With MMLRGNLKQVRIEKNPARLRALESAVGESEPAAAAAMALALAGEPAPPAPAPPEDHPDEEMGFTIDIKSFLKPGEKTYTQRCRLFVGNLPTDITEEDFKRLFERYGEPSEVFINRDRGFGFIRLESRTLAEIAKAELDGTILKSRPLRIRFATHGAALTVKNLSPVVSNELLEQAFSQFGPVEKAVVVVDDRGRATGKGFVEFAAKPPARKALERCGDGAFLLTTTPRPVIVEPMEQFDDEDGLPEKLMQKTQQYHKEREQPPRFAQPGTFEFEAASRAKALDEMEKQQREQVDRNIREAKEKLEAEMEAARHEHQLMLMRQDLMRRQEELRRLEELRNQELQKRKQIQLRHEEEHRRREEEMIRHREQEELRRQQEGFKPNYMENREQEMRMGDMGPRGAINMGDAFSPAPAGNQGPPPMMGMNMNNRATIPGPPMGPGPAMGPEGAANMGTPMMPDNGAVHNDRFPQGPPSQMGSPMGSRTGSETPQAPMSGVGPVSGGPGGFGRGSQGGNFEGPNKRRRY [Y275A;W279A], the “effect of a mutation on the interaction” value was “decreasing interaction strength”.
